Paper PMC6061791 (Nucleic Acids Research, 2018)
Positions count from the first letter of the chain named. Names and notes keep the numbering of the source. Each block holds one binder with its values, some of them ahead of it.

Key:
[1] = molecular target: T1, DapF (T20A), N-terminal 6×His tag (Escherichia coli, UniProt P0A6K1 1-274, T20A); assay: ITC
T1 sequence (looked up): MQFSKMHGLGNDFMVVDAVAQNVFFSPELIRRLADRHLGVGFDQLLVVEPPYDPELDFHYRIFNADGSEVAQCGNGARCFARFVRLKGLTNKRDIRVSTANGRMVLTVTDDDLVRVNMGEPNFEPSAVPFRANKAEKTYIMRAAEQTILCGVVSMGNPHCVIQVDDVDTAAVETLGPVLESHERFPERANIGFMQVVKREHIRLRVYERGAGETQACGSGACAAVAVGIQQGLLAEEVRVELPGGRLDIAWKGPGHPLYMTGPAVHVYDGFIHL

[2] = molecular target: T2, DapF (L89A), N-terminal 6×His tag (Escherichia coli, UniProt P0A6K1 1-274, L89A); assay: ITC
T2 sequence (looked up): T1 sequence (looked up) with A20T, L89A

[3] = molecular target: T3, DapF (diaminopimelate epimerase), wild type, N-terminal 6×His tag (Escherichia coli, UniProt P0A6K1 1-274); assay: ITC
T3 sequence (looked up): T1 sequence (looked up) with A20T

[4] = molecular target: T4, DapF (N22A), N-terminal 6×His tag (Escherichia coli, UniProt P0A6K1 1-274, N22A); assay: ITC
T4 sequence (looked up): T1 sequence (looked up) with A20T, N22A

[5] = molecular target: T3, DapF (diaminopimelate epimerase), wild …; assay: AUC
[6] = molecular target: T5, DapF (Y268A), N-terminal 6×His tag (Escherichia coli, UniProt P0A6K1 1-274, Y268A); assay: AUC
T5 sequence (looked up): T1 sequence (looked up) with A20T, Y268A

RppH = molecular target: T6, RppH (Escherichia coli DH5alpha, UniProt P0A776 1-176); assay: ITC
T6 sequence: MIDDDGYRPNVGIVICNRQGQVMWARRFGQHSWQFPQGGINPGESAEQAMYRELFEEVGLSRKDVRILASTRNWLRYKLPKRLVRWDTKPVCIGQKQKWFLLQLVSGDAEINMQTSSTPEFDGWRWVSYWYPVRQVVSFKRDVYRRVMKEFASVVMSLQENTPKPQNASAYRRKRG

DapF = molecular target: T7, DapF (Escherichia coli DH5alpha, UniProt P0A6K1 1-274); assay: ITC
T7 sequence: T1 sequence (looked up) with A20T

RppH;DapF = molecular target: T8, RppH;DapF (Escherichia coli DH5alpha;Escherichia …, UniProt P0A776;P0A6K1 1-176;1-274, |); assay: ITC
T8 sequence 1: T6 sequence
T8 sequence 2: T1 sequence (looked up) with A20T

B1: RppH (RNA pyrophosphohydrolase), wild type, GST tag removed (enzyme, Escherichia coli, UniProt P0A776 1-176, looked up)
chain: T6 sequence
- Kd [1]: 4.2 ± 1.8 nM
- dH [1]: -14.4 ± 0.2 kcal⋅mol^-1
- stoichiometry N [1]: 0.97
- Kd [2]: 5.2 ± 0.9 nM
- dH [2]: -10.4 ± 0.1 kcal⋅mol^-1
- stoichiometry N [2]: 1.06
- Kd [3]: 0.8 ± 0.4 nM
- dH [3]: -13 ± 0.1 kcal⋅mol^-1
- stoichiometry N [3]: 0.95
- Kd [4]: 0.3 ± 0.1 nM
- dH [4]: -16.4 ± 0.1 kcal⋅mol^-1
- stoichiometry N [4]: 0.96
- stoichiometry N [5]: 1 RppH per DapF (2:2 heterotetramer)
- stoichiometry N [6]: 1 RppH per DapF (1:1 heterodimer)

Binder: AGAACAAC (ssRNA, 5'-triphosphate) [8 nt RNA pppAGAACAAC]
- binding result (RppH): binds
- binding result (DapF): no binding
- Kd (RppH;DapF): ~120000 nM

Further binders by falling Kd [3], results first:

- Kd [3]: 12.8 ± 6 nM
- dH [3]: -12.5 ± 0.3 kcal⋅mol^-1
- stoichiometry N [3]: 0.85
B2: RppH (S128A), GST tag removed (enzyme, Escherichia coli, UniProt P0A776 1-176, looked up)
chain: T6 sequence with S128A

- Kd [3]: 4.8 ± 1.8 nM
- dH [3]: -11 ± 0.2 kcal⋅mol^-1
- stoichiometry N [3]: 1.05
B3: RppH (D142A), GST tag removed (enzyme, Escherichia coli, UniProt P0A776 1-176, looked up)
chain: T6 sequence with D142A

- Kd [3]: 2.3 ± 1 nM
- dH [3]: -14.6 ± 0.1 kcal⋅mol^-1
- stoichiometry N [3]: 1.01
B4: RppH (R145A), GST tag removed (enzyme, Escherichia coli, UniProt P0A776 1-176, looked up)
chain: T6 sequence with R145A
